This assay has as its target bovine serum albumin (BSA) (bovine, UniProt P02769 25-607). Briefly: phage ELISA, coated wells. A general note: ELISA stands for enzyme-linked immunosorbent assay.

Chain of bovine serum albumin (BSA) (P02769 25-607 limits assumed): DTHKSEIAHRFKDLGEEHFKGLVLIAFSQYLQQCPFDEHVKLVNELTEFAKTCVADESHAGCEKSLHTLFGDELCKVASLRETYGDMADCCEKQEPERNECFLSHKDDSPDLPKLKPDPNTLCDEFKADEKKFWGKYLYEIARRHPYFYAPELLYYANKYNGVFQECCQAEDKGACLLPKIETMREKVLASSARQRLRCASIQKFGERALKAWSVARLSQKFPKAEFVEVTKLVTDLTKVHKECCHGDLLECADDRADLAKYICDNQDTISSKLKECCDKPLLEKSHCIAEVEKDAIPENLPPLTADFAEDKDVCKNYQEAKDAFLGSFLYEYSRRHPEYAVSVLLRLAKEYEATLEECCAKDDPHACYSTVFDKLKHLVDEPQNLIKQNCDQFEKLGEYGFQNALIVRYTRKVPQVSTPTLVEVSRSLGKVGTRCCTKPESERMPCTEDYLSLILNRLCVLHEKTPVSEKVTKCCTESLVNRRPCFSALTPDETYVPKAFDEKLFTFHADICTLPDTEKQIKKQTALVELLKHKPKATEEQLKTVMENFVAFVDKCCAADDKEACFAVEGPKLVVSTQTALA
Experimental: Wells of Costar EIA/RIA high-binding plates were coated with ˜400-600 μg of antigen per well in phosphate-buffered saline (PBS) pH 7.0 at room temperature for 1 hr. The well solutions were decanted, and unbound well sites were blocked with PBS-T/0.5% (w/v) BSA for 1 hr. The wells were washed with PBS-T, phage solutions added and allowed to bind for 30 mins The phage solutions were decanted, the wells washed 5-7 times with PBS-T. Next, a solution containing 1:2500 dilution of anti-M13/HRP conjugate (GE Healthcare, Piscataway, N.J.) was added and allowed to bind for 30 mins. The wells were washed with PBS-T ˜5-7 times and developed using 3,3′,5,5′-tetramethylbezidine (TMB) substrate (Sigma). The ELISA signal was quantified either by direct measurement of blue color absorbance (OD650) or by quenching with sulfuric acid after 10-15 mins and determining the OD at 450 nm.

B1: 2G12 (Fab)2 fragment displayed bivalently on M13 phage from p2G12-Fab2zip (WT) (Fab, V domains shown, not shown: a dimerising Fc or GST; large carriers)
VH: EVQLVESGGGLVKAGGSLILSCGVSNFRISAHTMNWVRRVPGGGLEWVASISTSSTYRDYADAVKGRFTVSRDDLEDFVYLQMHKMRVEDTAIYYCARKGSDRLSDNDPFDAWGPGTVVTVSP
VL: VVMTQSPSTLSASVGDTITITCRASQSIETWLAWYQQKPGKAPKLLIYKASTLKTGVPSRFSGSGSGTEFTLTISGLQFDDFATYHCQHYAGYSATFGQGTRVEIKR
notes: also called 2G12-Fab-biv phage; WT 2G12 clone
For the molecule B1, the binding result is reported as “no binding”.

Values taken from patent publication US20130281317A1 (ALLBERT EINSTEIN COLLEGE OF MEDICINE OF YESHIVA UNIVERSITY, published 2013).
